This note sets out measurements from PMC3978094.

The target in data set [1] is T1, GATA3 DBD (N- and C-finger) (human, UniProt P23771-2 260-370). The data set can be described thus: crystal structure.
For data set [2], the target named is T1, GATA3 DBD (N- and C-finger). The data set is described as follows: SPR.
The target is the same in data set [3]. The data set can be described thus: crystal structure. This is another data set of the same source.
Data set [4] has the same target. The data set can be described thus: SPR. The source holds these as a separate data set. For orientation: SPR reads the build-up and loss of mass on a sensor chip optically.

Read-outs that look alike come from different tables or passages of the source.

By Kd is commonly meant the equilibrium constant for the complex coming apart.

B1: Complex 1 palindromic GATA site, 1-bp spacer, 20-mer (dsDNA)
DNA 1: AATGTCCATCTGATAAGACG
DNA 2: CGTCTTATCAGATGGACATT
For the molecule B1, in data set [1], the binding result is on record as “binds”.

B2: single GATA site SPR probe (dsDNA)
DNA 1: CTCCCGCTCGCTCAGAGATAAGGCCTTAT
DNA 2: ATAAGGCTTTATCTCTGAGCGAGCGGGAG
In turn, B2 showed a Kd in data set [2] of roughly 0.06 µM.

B3: Complex 2/3 palindromic GATA site, 3-bp spacer, 20-mer (dsDNA)
DNA 1: TTCCTAAATCAGAGATAACC
DNA 2: GGTTATCTCTGATTTAGGAA
Turning to B3, the binding result in data set [3] is recorded as “binds”.

B4: palindromic GATA site SPR probe (dsDNA)
DNA 1: CTCCCGCTCGCTATCAGATAAGGCCTTAT
DNA 2: ATAAGGCCTTATCTGATAGCGAGCGGGAG
Turning to B4, the Kd in data set [4] was roughly 0.006 µM.
